For assay [1], the target named is T1, Flag-Smad4, full length, Q13485.
T1 chain: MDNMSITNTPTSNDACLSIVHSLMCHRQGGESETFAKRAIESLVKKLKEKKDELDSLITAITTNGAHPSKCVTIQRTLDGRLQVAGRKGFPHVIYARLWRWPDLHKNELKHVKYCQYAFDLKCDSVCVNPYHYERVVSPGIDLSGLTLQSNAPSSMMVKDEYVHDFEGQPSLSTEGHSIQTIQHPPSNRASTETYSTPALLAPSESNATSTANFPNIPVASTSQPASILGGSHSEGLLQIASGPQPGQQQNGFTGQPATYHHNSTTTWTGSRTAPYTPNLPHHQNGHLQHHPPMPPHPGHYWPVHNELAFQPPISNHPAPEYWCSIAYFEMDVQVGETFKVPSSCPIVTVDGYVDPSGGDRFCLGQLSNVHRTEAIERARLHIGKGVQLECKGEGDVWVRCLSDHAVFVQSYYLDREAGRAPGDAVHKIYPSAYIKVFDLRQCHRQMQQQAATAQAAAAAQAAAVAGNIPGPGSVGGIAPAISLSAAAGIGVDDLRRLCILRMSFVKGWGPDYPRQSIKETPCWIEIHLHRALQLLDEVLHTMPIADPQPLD
Kind of assay: co-IP; LUMIER: Renilla luciferase-Smad3 and Flag-tagged partner co-expressed with constitutively active Alk5 in HEK-293; Flag protein captured from cleared lysate (TNE: 10 mM Tris-HCl pH 7.8, 150 mM NaCl, 1 mM EDTA, 1% Igepal CA-630) on anti-Flag 96-well plates, 2 h at 4 °C; co-precipitated Renilla luciferase activity, TrxGA background subtracted, percent of wild-type Smad3. To be noted: remark: other sources report otherwise.

Assay [2] shares this target. Put plainly: co-IP; LUMIER as a1 but without co-expression of the activated Alk5 kinase (Smad3 not phosphorylated); percent of phosphorylated wild-type Smad3. Particulars: remark: other sources report otherwise.

Data on two molecules can be found in paper PMC3176292.

B1: Renilla luciferase-Smad3 wild type, co-expressed with constitutively active Alk5 (phosphorylated Smad3), P84022 1-425 (natural protein)
chain: MSSILPFTPPIVKRLLGWKKGEQNGQEEKWCEKAVKSLVKKLKKTGQLDELEKAITTQNVNTKCITIPRSLDGRLQVSHRKGLPHVIYCRLWRWPDLHSHHELRAMELCEFAFNMKKDEVCVNPYHYQRVETPVLPPVLVPRHTEIPAEFPPLDDYSHSIPENTNFPAGIEPQSNIPETPPPGYLSEDGETSDHQMNHSMDAGSPNLSPNPMSPAHNNLDLQPVTYCEPAFWCSISYYELNQRVGETFHASQPSMTVDGFTDPSNSERFCLGLLSNVNRNAAVELTRRHIGRGVRLYYIGGEVFAECLSDSAIFVQSPNCNQRYGWHPATVCKIPPGCNLKIFNNQEFAALLAQSVNQGFEAVYQLTRMCTIRMSFVKGWGAEYRRQTVTSTPCWIELHLNGPLQWLDKVLTQMGSPSIRCSSVS
modifications: here or on the partner: phosphorylated by the co-expressed activated Alk5 kinase (sites not given)
Take B1: the percent binding relative to wild-type Smad3 in assay [1] was 100%.

B2: Renilla luciferase-Smad3 wild type, without Alk5 (not phosphorylated), P84022 1-425 (natural protein)
chain: MSSILPFTPPIVKRLLGWKKGEQNGQEEKWCEKAVKSLVKKLKKTGQLDELEKAITTQNVNTKCITIPRSLDGRLQVSHRKGLPHVIYCRLWRWPDLHSHHELRAMELCEFAFNMKKDEVCVNPYHYQRVETPVLPPVLVPRHTEIPAEFPPLDDYSHSIPENTNFPAGIEPQSNIPETPPPGYLSEDGETSDHQMNHSMDAGSPNLSPNPMSPAHNNLDLQPVTYCEPAFWCSISYYELNQRVGETFHASQPSMTVDGFTDPSNSERFCLGLLSNVNRNAAVELTRRHIGRGVRLYYIGGEVFAECLSDSAIFVQSPNCNQRYGWHPATVCKIPPGCNLKIFNNQEFAALLAQSVNQGFEAVYQLTRMCTIRMSFVKGWGAEYRRQTVTSTPCWIELHLNGPLQWLDKVLTQMGSPSIRCSSVS
For B2, in assay [2], the percent binding relative to wild-type Smad3 worked out at 6%.
